Source: the supplement of paper PMC6379048

What was measured:
Assay in all cases: Kd (EC50 corrected by depletion factor)
SF3B2 = target: T1, SF3B2 (UniProt Q13435)
T1 sequence: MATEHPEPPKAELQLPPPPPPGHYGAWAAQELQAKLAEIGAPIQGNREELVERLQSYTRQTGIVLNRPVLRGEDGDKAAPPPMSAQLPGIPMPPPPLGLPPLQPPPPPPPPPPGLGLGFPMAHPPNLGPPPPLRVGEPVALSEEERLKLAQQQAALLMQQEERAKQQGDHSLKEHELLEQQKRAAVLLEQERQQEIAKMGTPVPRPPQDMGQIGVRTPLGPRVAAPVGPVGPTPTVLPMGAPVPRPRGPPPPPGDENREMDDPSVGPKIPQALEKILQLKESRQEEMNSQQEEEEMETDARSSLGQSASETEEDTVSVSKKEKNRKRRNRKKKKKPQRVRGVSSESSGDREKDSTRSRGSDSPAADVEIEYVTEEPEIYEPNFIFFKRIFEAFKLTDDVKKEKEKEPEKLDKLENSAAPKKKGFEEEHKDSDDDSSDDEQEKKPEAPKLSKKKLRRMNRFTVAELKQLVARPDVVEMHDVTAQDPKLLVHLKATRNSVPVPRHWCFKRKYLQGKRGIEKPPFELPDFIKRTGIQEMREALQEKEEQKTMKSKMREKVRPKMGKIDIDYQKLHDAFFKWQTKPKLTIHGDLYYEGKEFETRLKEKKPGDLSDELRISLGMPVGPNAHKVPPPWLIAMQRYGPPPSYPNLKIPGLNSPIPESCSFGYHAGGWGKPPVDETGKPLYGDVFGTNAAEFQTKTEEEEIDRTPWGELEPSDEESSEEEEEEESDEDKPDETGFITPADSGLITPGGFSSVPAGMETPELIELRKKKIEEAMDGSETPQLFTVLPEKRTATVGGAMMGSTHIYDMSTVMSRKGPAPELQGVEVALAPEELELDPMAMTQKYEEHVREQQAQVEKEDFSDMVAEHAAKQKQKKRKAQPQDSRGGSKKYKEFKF
Method in brief: (§1)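 Over three biological replicates and two independent experiments, proteins captured on NHS-Sepharose beads carrying 5′-amino-C6 RNA oligos were quantified by label-free LC-MS/MS and normalised to the control. Capture lasted 30 min at 4°C and followed a 1 h pre-incubation at 4°C of HEK293-FT lysate (2.5 mg protein/well) with the same oligos in free form (0 nM to 30 μM). EC50 was taken from a four-parameter log-logistic fit, and Kd was EC50 corrected by a protein-dependent depletion factor.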

CXorf57 = CXorf57 (UniProt Q6NSI4)
Sequence of CXorf57 (Q6NSI4 whole entry): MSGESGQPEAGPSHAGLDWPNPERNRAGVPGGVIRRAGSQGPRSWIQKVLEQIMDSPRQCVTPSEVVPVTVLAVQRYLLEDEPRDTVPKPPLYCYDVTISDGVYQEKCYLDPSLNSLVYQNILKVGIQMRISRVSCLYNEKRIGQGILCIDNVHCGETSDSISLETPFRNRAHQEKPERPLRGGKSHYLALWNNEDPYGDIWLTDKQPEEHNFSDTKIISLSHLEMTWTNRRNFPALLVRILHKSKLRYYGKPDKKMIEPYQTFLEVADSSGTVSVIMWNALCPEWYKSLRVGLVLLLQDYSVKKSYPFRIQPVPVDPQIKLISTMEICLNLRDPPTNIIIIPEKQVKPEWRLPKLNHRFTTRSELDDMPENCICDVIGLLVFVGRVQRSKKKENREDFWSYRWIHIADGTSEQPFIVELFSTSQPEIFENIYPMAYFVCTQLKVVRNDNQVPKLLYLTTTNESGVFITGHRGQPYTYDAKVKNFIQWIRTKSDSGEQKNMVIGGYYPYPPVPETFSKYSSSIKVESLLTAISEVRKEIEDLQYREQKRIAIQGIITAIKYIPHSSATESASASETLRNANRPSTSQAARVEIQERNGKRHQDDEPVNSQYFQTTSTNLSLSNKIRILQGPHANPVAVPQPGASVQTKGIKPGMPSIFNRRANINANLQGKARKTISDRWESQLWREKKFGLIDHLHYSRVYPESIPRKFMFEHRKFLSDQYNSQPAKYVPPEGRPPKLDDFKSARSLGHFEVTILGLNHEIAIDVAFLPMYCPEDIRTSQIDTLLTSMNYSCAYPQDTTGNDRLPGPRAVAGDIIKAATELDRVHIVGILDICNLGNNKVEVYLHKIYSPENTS
Method in brief: as §1

RPS28 = RPS28 (UniProt P62857)
Method in brief: as §1

YTHDC2 = target: T2, YTHDC2 (UniProt Q9H6S0)
T2 sequence: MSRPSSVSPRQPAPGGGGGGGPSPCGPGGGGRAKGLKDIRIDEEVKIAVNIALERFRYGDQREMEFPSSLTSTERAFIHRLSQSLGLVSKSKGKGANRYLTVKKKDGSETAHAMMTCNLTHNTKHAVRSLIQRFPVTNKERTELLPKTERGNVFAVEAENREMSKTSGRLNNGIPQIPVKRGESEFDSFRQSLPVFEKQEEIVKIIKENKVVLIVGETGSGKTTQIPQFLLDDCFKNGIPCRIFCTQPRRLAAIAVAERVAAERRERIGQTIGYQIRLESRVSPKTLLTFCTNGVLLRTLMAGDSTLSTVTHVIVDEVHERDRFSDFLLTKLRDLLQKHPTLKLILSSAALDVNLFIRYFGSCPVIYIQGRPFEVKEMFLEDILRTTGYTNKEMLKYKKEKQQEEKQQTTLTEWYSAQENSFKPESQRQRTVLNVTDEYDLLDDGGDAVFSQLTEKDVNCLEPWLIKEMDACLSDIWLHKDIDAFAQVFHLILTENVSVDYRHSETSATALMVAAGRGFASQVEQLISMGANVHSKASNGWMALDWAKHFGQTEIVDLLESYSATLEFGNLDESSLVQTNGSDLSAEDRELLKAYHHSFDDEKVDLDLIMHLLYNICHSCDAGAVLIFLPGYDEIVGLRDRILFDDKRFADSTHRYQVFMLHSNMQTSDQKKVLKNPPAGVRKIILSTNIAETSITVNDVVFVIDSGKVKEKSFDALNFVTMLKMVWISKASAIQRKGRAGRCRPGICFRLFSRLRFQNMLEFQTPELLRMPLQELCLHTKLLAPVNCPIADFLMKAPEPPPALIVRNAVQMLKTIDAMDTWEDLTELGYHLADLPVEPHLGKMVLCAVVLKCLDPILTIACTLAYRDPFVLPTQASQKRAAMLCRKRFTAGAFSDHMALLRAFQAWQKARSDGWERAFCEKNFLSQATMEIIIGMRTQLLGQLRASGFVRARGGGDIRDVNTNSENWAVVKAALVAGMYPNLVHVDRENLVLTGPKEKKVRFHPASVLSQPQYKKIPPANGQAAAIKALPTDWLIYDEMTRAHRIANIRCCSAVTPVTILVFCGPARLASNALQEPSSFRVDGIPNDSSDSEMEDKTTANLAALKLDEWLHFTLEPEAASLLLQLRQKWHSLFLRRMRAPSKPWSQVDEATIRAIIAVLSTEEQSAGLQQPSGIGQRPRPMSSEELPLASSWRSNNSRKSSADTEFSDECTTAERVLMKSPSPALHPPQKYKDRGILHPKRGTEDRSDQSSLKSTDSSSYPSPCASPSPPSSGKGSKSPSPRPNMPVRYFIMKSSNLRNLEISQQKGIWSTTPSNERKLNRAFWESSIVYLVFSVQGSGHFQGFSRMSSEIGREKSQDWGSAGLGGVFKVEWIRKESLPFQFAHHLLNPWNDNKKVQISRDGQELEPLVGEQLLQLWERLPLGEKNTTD
Method in brief: as §1

LSM8 = target: T3, LSM8 (UniProt O95777)
T3 sequence: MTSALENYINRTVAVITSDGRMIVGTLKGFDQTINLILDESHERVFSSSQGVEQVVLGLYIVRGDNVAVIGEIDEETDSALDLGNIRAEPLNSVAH
Method in brief: as §1

AAUAAA
Kd (SF3B2): 719 nM | Kd (CXorf57): 1040 nM

CUGUCCU
Kd (RPS28): 115 nM | Kd (YTHDC2): 986 nM

UAUUUAU
Kd (LSM8): 2230 nM
